Measurements reported in the NTF2 design screens of Basanta et al. (2020).

Experiment: protease stability score; higher = more stable; yeast display proteolysis, trypsin and chymotrypsin;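 further: relative to predicted unfolded state with 0 unfolded-like and 1 meaning tenfold more protease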

Row | Sequence | protease stability score
1 | TEEEEHALTLMKEWVHNHETGNEDHLSHLMDPNYRWVQGDWHLHGMEDFSRELNKTLDKMGMTEHLRLKDFKVQGNFVEVIGTQHLHINGRTIKIDSTLKLNVINGRIHEVRYTLH | 0.77
2 | TEEEEHASRIARLWLDMLLTGDWHTLDRLLDPHVRLEVNGQERIGREQIIKFEEERKRQLRINDVRTRHIHSQGDKLHIVTEADGEIDGKRTNVDTRIQIKVVDGVVEEVKFDIK | 0.736
3 | TEEEEHIRRLAEELMHNIRTGDEDTLVDLFDPDTKLHVHQGDKEIVFHGMEEIFDWWEKLLSEIRIEIRIRSIKYIGDKAHVHTEVIWRFNGREHRIESEIEFVLINGKVERIHISFI | 2.27
4 | TEEEEHLHTLASKDLKAFMTGDWETHKKLADPHVRFELVVGEWRLILHGRERFIEFLIEVLEKMGVDHFHLQHVEVIGNFVRLNIKIEVGDKTHDTRIDLEYINGVIHDVRVEFK | 2.02
5 | TEEEEHSKTLAEELLRVLLTGDEDTLHELFDPHARFHYGDKLHIGREEVTKALREVYERIDHYEVKHLEIQGDKVHVDGEHHIGDKSIRVRVHAWIVNGVVKQYHEHSL | 1.02
6 | TEEEEHTDMVRRIWVEIAKTGDERSWEKYFDPNARMHIFFNGQEIELHGRETITKWLHETLTRIKGLRMEIEHFENIGDKVHMDTRFIIGDKERKSEVEIIVVDGRLKSVTIRHR | 1.78
7 | TEEEEHWKHLVELWLRAVETGDEHLLHRLLDPHVKIDYNGKELHGRETHIKIERHFRERYKGLRWEIKHHEIQGDKAHVDFLLNVNGREHRVRIEIIIVNGRVHQIHFDIN | 2.23
8 | TEEEEILHEELRRHKEALETGDEDRLRHLIDPRARMDVNGREFHGMEHIVHFLVEFLLKFKNVRFEIKDFTKIGEYIYVDIHIIVDGRRHHMTVVALKVDGRWRNRHLHID | 1.18
9 | TEEEEILREAYELFFKMMKTGDEHMKSRLADPNVRLHIGDKENHGMDEVIRVFREEHKRYKNLTLRHWHLEDSHVVNGRIILHYKMNVEVNGVEIETSVHVVIRKINGKWELESLSVE | 0.882
10 | TEEEEIVTRALDKFREDLDTGDWKSIKHNFDPDVRLVFENHSTHGRELAVTIAEHIFKRFDYVHDSRNEHIKFQGDKVEWHSHYDGTINGRRMEVRILLIVRKYNGVWIIEEYLIV | 1.47
11 | TEEEEIYERVARLWAEAMLTGDWKTETNLLDPHTRYDYDVDGKHIHLHGREHFKKMLEDLLRHLRFRIRVEEIHVYGEKVEVHGKLDIHVGDKTTHEHTSVQIYVVNGKMKSIRVHSH | 1.49
12 | TEEEEKSEHLIRLLLHILTTGDEDTYSWLLDPNAKLTFNGVEFHGREDLRRFWEEHLHRLGVDHRDIKDLKRQGDKVIIHNKIHVNGRTIHQEVEIEVINGKAKFNTVILE | 0.412
13 | TEEEEKSWRLAEWFFRIIETGNEHEQKRLADPHVQIHIQIDGRHIHLHGWEELMKELKRLGIKYHKIERLRVIGEKIDEEGRLEINGREHDVRIHILIINGRMNSIHIHIE | 1.66
14 | TEEEEKVMEIIEIILHVLKTGDEHLLENLIDPNARSEYGDKELHGREQILRFAWWVSHHIRLKHLHIDSMRVFNGRIEIHGHNIGEINGRESEIHLSLIMIKVDGQWKIHSMRFE | 1.44
15 | TEEEELAHEALRRFTREWVTGDEDLLQNLLDPHTKIEIDGRELHGWHEMVRYYRHLGFDVNEFHLHRFHIQGDKIRVDGELRFHVDGRTHTIRFTIVARKVNGKWLNTHEHYK | 0.721
16 | TEEEELAHHLVRLLIELWRTGDEEILRHLADPNVKLIYGDKTDHGREKSHRWMKELLDRYDHVEIIIRREEVQGEKAHSDVELVVNINGVREVYEVHLHFIVVNGKIREERIEVR | 0.989
17 | TEEEELEEKIARRFLTIWLTGDEERLRELADPNVRLEIDINGVTLEYHGRDELAHMFDHELKKLGFKHLHLESLRVINGVVHSNVRITFNGQERESKIINIVINGRLHTLILRWE | 1.41
18 | TEEEELLKKFMKDFIQKHVTGDWDSLYKMADPDVKWHINGQQSIGREEVHRMWSEKLKRIDHIEHFHDESIHVIDGRVTLRGRITGNVDGRRYDVEVDFHLFVVDGKLKQFHVHHQ | 0.849
19 | TEEEELLTRLARQILRWLLTGDEDKHSRMLDPRDRSVIGDKESVGMEESVKNWRIWLEEMRLKHVQLRDVRIVDGVVHLDIHLFGHINGVHIDRESRMDVYIVNGRIHRIRIIEH | 1.3
20 | TEEEELRRRHAKELLDIWRTGDEHLMSHLADPHVRSIIDGVTVIGRDEWMKYLRILREHLGVKHIEHKDFNIQGDKVDVHGTMHVNGREIEVRSHFYVIDGRVRSNEIRFH | 0.256
21 | TEEEELSELILELTERMIKTGDEKTLHRLMDPNARTVIGDKQDHGMRTIFNIMEELSERIKNARFSLKHIDVDGDKVKIWSTLNYDGRRWEVEIVARKIDGQWRLEEFRIR | 0.626
22 | TEEEELSRKAAEILDEAQQTGDEDSIRELVDPNVKYEINGRIFVGWQEMLHAFRLELRHIRLREVHIKREKRIGNWMFIDSSMDGEVNGVRTERKSELVFLKFDGQWSLHSMRIE | 1.56
23 | TEEEEMYHKFAHEIARNLVTGDEDRLLELADPHVKSNVNGVELHGMEHFLEFWIHIVKEIRVHLRITHVTVINGVVIHDSEYEFIVNGKRHTTRVEIWWVVVDGRVHRVELRFK | 1.17
24 | TEEEEQIKEMMEEMQHSYKTGDWRAISELLDPNVRMHIGDKEFHGREDLLRVFKHIRVKHLEIHHVRIIDGRAEVETTYTLVVDGVEHVHHTHIHSRKINGRWHIEEVYIH | 2.02
25 | TEEEETARHMVHEFYEVIKTGDEETFRKLLDPNTKLHVNGKERHGREAIDEMYHRFKNVRIHVEHVDVVDGKIDLRENWIQGDKETIVRIEAHKVDGRWELRSVHIH | 1.36

Row | Sequence | protease stability score
26 | TEEEEYLRKLTKDFIEAFLTGNWKEVARLLDPHTRLHVGEFEIHGREEMMKFMIELITRAGIKHQHIKSFETRIINGVVFLHVHMIVIVNGRNIERRLHVLFVKIDGRWTIEEVSEEHE | 1.46
27 | TEEEHFIKHATELWLRLLRTGDEHELSKMIDPHARVLIGDKNIHGRELASKFLSEFAHQIDHVEIRIKEVRTVDGKVDSDTRLDMHVDGQDIHHETRIISLKVDGKWLLQSFHFD | 0.456
28 | TEEEHIIDDFDKRLLHAFVTGNEDLLAKLADPNVRLSVKIGDKTIERHGMESFRNWLRRFHEEIRIEDHKSDEVRFYNGVLEHHGTVLGHVNGVRTKVHVLEIYFIINGRMRNIWIEVR | 1.54
29 | TEEEHLLKKLAELVWEAVETGDEDFLKKLVDPHTRLHVDGREHHGREDFIEILTRMGVDHHRLEHFRVIDGKLFIDGHFNFNGRYFRVHIIFIIINGRAKEFWMRTE | 1.66
30 | TEEEHLMKEMLDLWVEALMTGDEKLLSELMDPNTRFHLRYGDFLQDRHGRHIINHIIRHWRFHVFKIEDTKVFNGRAIADTHLDVEIDGRRVRTRTKVDLVTINGKIERLDLEID | 0.902
31 | TEEEHLVEEMARRMLHSWLTGDEETLERLLDPNVRLEMIIDGVELRLHGREDMSRWLREWVERVDHVEIEIKRIRLIGEKSILDGQIHERQGDKERVIKTEIIVVVVDGRIHNSKIIIR | 1.14
32 | TEEEHNVRIALSLYIETFKTGNEEVLRRRLDPNARLIFNGRDLHGRELIEDWIHEFHEKVPGLQIHRHEVKDWHVQGNKIDLDVHIDGVFDGKQTETRVILHILKVDGQWIMTVIEIR | 1.35
33 | TEEEHWALHLLERILHHMLTGNESFIKHLFDPDTRWEVNGVENIGMERHSKLFLHMRIESIEIRSIHVRIVGEYIHIDVEIDIRGIVNGQRVEYHKKIHVIISKVNGRWHIKHYHESDE | 1.22
34 | TEEEKDSDDAFRHWVHSMRTGDEDRLRELIDPNARLLVNGRELHGMEWIITILSKEIKELRFKDVRLRDRDIVGNYAEVDVEIDMTIGEKEDSRDVVIFVLKVNGRWVIKEMHIR | 1.46
35 | TEEEKELRHLYNRWLKDLQTGDEDSFRHLADPNVRLIVGDKDHHGWETSAQWMRELRERVDHLEIIVDSSHVINGRIESDTTIRLRVGDKTIEYRAEFEIDIVNGKMKRIVVREH | 0.998
36 | TEEEKEVEDLLRVVIHALQTGDEKKISELVDPNMRVKIGDKINHGWENAFEFHVRFIKELGVDHINIHPRHVRLIGDKVEVHLNLIIHVNGRDHETEIRLTAIKVNGRWHIESFEEQ | 1.91
37 | TEEEKFAEEMLRRFIENLITGDWRELKKLFDPDTKIVFNGREHHGMEWHIEFLREIRITHIEVRDMTLINGVAHANGHEIIIIGDKTLEMDTRINIVTINGRIHSIEIKQR | 2.54
38 | TEEEKHARLVKEHIVEILKTGDEREWMERADPNMYMTVGNKEQHGREQVMHLIERLLKELGIKHSHIKRLELQGDKVHLDVELNFNGVTRDSRLIFIVINGRFHEVIIIIH | 0.947
39 | TEEEKHLRELTDRVLHEEETGDWRTLKELADPNVRFDYRYGDYFFHSHGREDVVKHLRHVFQEMRIERVHVKDRKNYNGKVEIHTEIHGVYNGVRFRTEVTIKIVIIDGRIHSHIWEIN | 0.305
40 | TEEEKIFKKLMHLILNAFLTGDEELLHEYVDPHARVRVGDKEFHGRENIIHALRMLFHHLGIDHIEIDKVDVFNGRMEVHGTFHFDGKNVESILRFDVYNGRLKKEEIEWR | 0.726
41 | TEEEKKSEEFLKKLTHAWRTGNEDTLTHMMDPHVRIDFNGQELIGMEHARRLISELRVEDLEIESITHQGNKVHIRGRDLVLFNGQQRTIDTIFILKKVDGRWIIESIEFR | 1.9
42 | TEEEKLARFAWHLRLHAEETGNEELIETLMDPNVKIDIDINGREIHMIGREEYIRWFNEYGFKHVEHVDEREMRVQGDYLDIRGRVIFHVNGQRIDTETQHHILVVDGRIKEIHDIYH | 1.69
43 | TEEEKMAEKLWEILVKNAQTGDEDKVLKLIDPHTRFTFNGQTHHGRDTFHHLWKILGVDHVEPHSIEVQGDKAHIDSRLYFNGQVRTYTIIVEKINGRWIVTTIDLH | 1
44 | TEEEKSLKEVLERYIKAIRTGDWEILRHLADPRTRMDINGRDIHGMEEITNELVEQIRRFDHIDFKFHHIEVYGDKADVHGTLVIKINGVEIRHSTKEFWYKVNGRWILHHSEIH | 1.21
45 | TEEENMNEENLDLAVHLMHTGDEEHLFDRLDPHARLEYGDKKYHGREIVEEVLLTLIRELGVDHIRVRRVKFVGDKLHIDSEFTVGDKVFRLHLVARKINGRWWLHSMRVQ | 1.34
46 | TEEEQLLKEFAELYLRNWWTGNEDKLLELADPHARSVVNGREIHGRENMYKLIRLWLERFKNIQIHYDDVKFQGNYVKLHGHMTVGDKTTHIIIHILVIDGVIKELSLEVN | 1.56
47 | TEEERDMKHLAELALESFLTGDFEIIKKLADPNVRSVIDGRDYHGMEEVHRYLEELLRMLGVKVSRIEDERLRIINGRVTVETDIRLNVDGKIFRVTLHFFFHKFNGRWRIEEIRIHIE | 0.537
48 | TEEERDSKLAFQLLFKTLETGDEREHREFIDPNMRLHVGNYEFIGWERAVHIMRRIDHVQRIEIEDTYTIGNKVTIDGTDYIEVGDFTERIRSRWIILKVDGKWFIHHVELR | 0.679
49 | TEEERDTKIAVDLFEEYSRTGNEDNMRELADPNVRLKINGVDYVGWKHMTKLLNHWRVKTVNIRHVEIQGDYARSDVEEEVLINGKEDRRTSRLILFKVNGRWIIKSLEFD | 1.28
50 | TEEERDVEKFIRDTLHYLHTGDEDAVAELMDPNVKFIIGDKHLHGMEALEYWSERFDHFHVRRLEIHHFEIINGRVHIELRIWVEVRYNGRIFELEFRSEYIMYKIDGKWVIKHVRHT | 1.56
